From paper PMC3772059

System: TTF-IΔN348
Assay: MST
Details: 5 mM MgCl2; Hill coefficient 1; MST: 50 nM DNA, 5 nM-2.4 uM protein, 80 mM Tris-HCl pH 7.6, 80 mM KCl, 0.2 mM EDTA, 5 mM MgCl2, 10% glycerol, 0.05% IGEPAL CA-630, 10 min at 30 C; EMSA and …

Which Kd does the source give for T2 Sal-box 30-mer oligonucleotide here?
The Kd was 500 nM.
